Test results: patent publication US20140120555A1 (PIERRE FABRE MEDICAMENT, published 2014)
Blank lines part the entries; values can stand above or below the binder they belong to.

Key:
[1] = biological target: T1, Recombinant mouse FcγRIII [CD16], Ala31-Thr215 with C-terminal 10-His tag (mouse, UniProt P08508 31-215); assay: SPR (Biacore X): m-FcγRIII injected over c515H7 Mab immobilized on a CM4 sensorchip; heterogeneous ligand model, minor component (1%)
T1 construct: Soluble form bought from R&D Systems; also called m-FcγRIII
T1 sequence: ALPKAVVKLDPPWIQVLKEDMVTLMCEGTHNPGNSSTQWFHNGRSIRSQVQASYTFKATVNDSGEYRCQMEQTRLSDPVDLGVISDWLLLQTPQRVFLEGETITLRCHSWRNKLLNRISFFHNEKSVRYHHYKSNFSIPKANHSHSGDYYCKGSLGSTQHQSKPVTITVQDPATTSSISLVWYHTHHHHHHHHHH
Experimental: (§1) 2017 RU of c515H7 Mab were immobilized using the amine coupling kit chemistry on the second flowcell (FC2) of a CM4 sensorchip. The first flowcell (FC1) activated by NHS and EDC mixture and des-activated by ethanolamine served as the reference surface to check and subtract the non specific interaction between the analyte (Fc gamma receptors) and the sensorchip matrix.
(§2) The kinetic experiments were carried out at 25° Celsius at a flow rate of 30 μl/min. The HBS-EP buffer was used either as the running buffer or for the preparation of analyte solutions. The analyte solutions were injected during 90 seconds (association phase) with a 90 seconds delay (dissociation phase). An injection of running buffer as analyte was used as a double reference. All the sensorgrams were corrected by this double reference sensorgram.
(§3) After each injection of the analyte, the sensorchip was regenerated by injection of 20 mM NaOH, 75 mM NaCl solution.

[2] = biological target: T2, Recombinant human FcγRI [CD64], Gln16-Pro288 with C-terminal 6-His tag (human, UniProt P12314 16-288); assay: SPR (Biacore X): h-FcγRI injected over c515H7 Mab immobilized on a CM4 sensorchip; heterogeneous ligand model, major component (100%)
T2 construct: range 16-288; Soluble form bought from R&D Systems; also called h-FcγRI
T2 sequence (P12314 other isoform, or with tags, fused parts or gaps limits assumed): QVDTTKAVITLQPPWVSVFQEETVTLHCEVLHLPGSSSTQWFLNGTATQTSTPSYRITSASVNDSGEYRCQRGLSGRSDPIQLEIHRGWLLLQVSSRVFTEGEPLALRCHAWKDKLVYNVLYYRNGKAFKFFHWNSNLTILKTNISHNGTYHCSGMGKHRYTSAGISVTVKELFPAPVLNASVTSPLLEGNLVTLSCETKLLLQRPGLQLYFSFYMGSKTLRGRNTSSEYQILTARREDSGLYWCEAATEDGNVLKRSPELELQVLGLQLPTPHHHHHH
Experimental: as §1, §2, §3

[3] = biological target: T3, Recombinant human FcγRIIIA variant V [CD16a], Gln17-Gln208 with C-terminal 6-His tag (human, UniProt P08637 17-208); assay: SPR (Biacore X): h-FcγRIIIA injected over c515H7 Mab immobilized on a CM4 sensorchip; heterogeneous ligand model, minor component (19%)
T3 construct: range 17-208; 'variant V' is given without a position, so no substitution is written; also called h-FcγRIIIA
T3 sequence (P08637 other isoform, or with tags, fused parts or gaps mutant limits assumed, form in doubt): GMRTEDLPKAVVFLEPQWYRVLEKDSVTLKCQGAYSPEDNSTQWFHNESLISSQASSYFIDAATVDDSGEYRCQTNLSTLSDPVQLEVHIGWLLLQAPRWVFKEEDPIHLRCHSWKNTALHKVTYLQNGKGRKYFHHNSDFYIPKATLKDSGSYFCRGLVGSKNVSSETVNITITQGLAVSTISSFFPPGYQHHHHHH
Experimental: as §1, §2, §3

[4] = biological target: T4, Recombinant mouse FcγRI [CD64], Gln25-Pro297 with C-terminal 6-His tag (mouse, UniProt P26151 25-297); assay: SPR (Biacore X): m-FcγRI injected over c515H7 Mab immobilized on a CM4 sensorchip; heterogeneous ligand model, major component (81%)
T4 construct: range 25-297; Soluble form bought from R&D Systems; also called m-FcγRI
T4 sequence: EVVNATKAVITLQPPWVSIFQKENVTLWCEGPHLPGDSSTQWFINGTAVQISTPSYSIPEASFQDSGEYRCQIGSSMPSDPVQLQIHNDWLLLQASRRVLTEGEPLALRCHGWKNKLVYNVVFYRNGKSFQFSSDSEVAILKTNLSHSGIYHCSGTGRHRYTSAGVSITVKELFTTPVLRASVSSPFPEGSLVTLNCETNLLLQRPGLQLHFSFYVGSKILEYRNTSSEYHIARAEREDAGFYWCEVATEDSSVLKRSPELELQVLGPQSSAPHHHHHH
Experimental: as §1, §2, §3

[5] = biological target: T4, Recombinant mouse FcγRI [CD64], …; assay: SPR (Biacore X): m-FcγRI injected over hz515H7VH1D76NVL2 Mab immobilized on a CM4 sensorchip; Langmuir model
Experimental: as §1, with “1964” for “2017”, “hz515H7VH1D76NVL2” for “c515H7”
as §2
(§4) After each injection of the analyte, the sensorchip was regenerated by injection of either 20 mM NaOH solution after h-FcγRI and m-FcγRIII or 10 mM NaOH after h-FcγRIIIA and m-FcγRI.

[6] = biological target: T1, Recombinant mouse FcγRIII [CD16], …; assay: SPR (Biacore X), Mab on CM4 chip, m-FcγRIII as analyte, Langmuïr model; higher of the two Langmuïr-fit values
Experimental: as §1, with “1964” for “2017”, “hz515H7VH1D76NVL2” for “c515H7”
as §2
Using the Langmuïr model the constant of dissociation was around 17 and 18 nM.

[7] = biological target: T1, Recombinant mouse FcγRIII [CD16], …; assay: SPR (Biacore X): m-FcγRIII injected over hz515H7VH1D76NVL2 Mab immobilized on a CM4 sensorchip; heterogeneous ligand model, minor component (34%)
[8] = biological target: T4, Recombinant mouse FcγRI [CD64], …; assay: SPR (Biacore X): m-FcγRI injected over hz515H7VH1D76NVL2 Mab immobilized on a CM4 sensorchip; heterogeneous ligand model, major component (82%)
Experimental: as §1, with “1964” for “2017”, “hz515H7VH1D76NVL2” for “c515H7”
as §2, §4

[9] = biological target: T2, Recombinant human FcγRI [CD64], …; assay: SPR (Biacore X): h-FcγRI injected over hz515H7VH1D76NVL2 Mab immobilized on a CM4 sensorchip; heterogeneous ligand model, major component (99%)
Experimental: The experiments were carried out using a Biacore X device. The soluble forms of the four Fc […]gamma receptors used in this study were purchased from R&D Systems: […]

Kd [1]: 67 nM
koff [1]: 0.0024 s⁻¹
kon [1]: 40000 M⁻¹ s⁻¹
Kd [2]: 1.22 nM
koff [2]: 0.000599 s⁻¹
kon [2]: 493000 M⁻¹ s⁻¹
Kd [3]: 34.7 nM
koff [3]: 0.0124 s⁻¹
kon [3]: 357000 M⁻¹ s⁻¹
Kd [4]: 416 nM
koff [4]: 0.138 s⁻¹
kon [4]: 332000 M⁻¹ s⁻¹
B1: chimeric antibody c515H7 (antibody, human IgG1, kappa)
heavy: not shown
light: DIVMSQSPSSLAVSAGEKVTMSCKSSQSLFNSRTRKNYLAWYQQKPGQSPKLLIYWASARDSGVPARFTGSGSETYFTLTISRVQAEDLAVYYCMQSFNLRTFGGGTKLEIKRTVAAPSVFIFPPSDEQLKSGTASVVCLLNNFYPREAKVQWKVDNALQSGNSQESVTEQDSKDSTYSLSSTLTLSKADYEKHKVYACEVTHQGLSSPVTKSFNRGEC
notes: Human IgG1/kappa constant domains; also called c515H7 Mab; chimeric 515H7

Kd [5]: 77 nM
koff [5]: 0.0648 s⁻¹
kon [5]: 842000 M⁻¹ s⁻¹
Kd [6]: ~18 nM
Kd [7]: 61.4 nM
koff [7]: 0.0299 s⁻¹
kon [7]: 487000 M⁻¹ s⁻¹
Kd [8]: 76.8 nM
koff [8]: 0.106 s⁻¹
kon [8]: 1.38e+06 M⁻¹ s⁻¹
Kd [9]: 0.69 nM
koff [9]: 0.0004 s⁻¹
kon [9]: 579000 M⁻¹ s⁻¹
B2: humanized antibody Hz515H7 VH1 D76N VL2 (antibody, human IgG1, kappa)
heavy: not shown
light: DIVMTQSPSSLAVSLGERATMSCKSSQSLFNSRTRKNYLAWYQQKPGQSPKLLIYWASARDSGVPARFTGSGSETYFTLTISRVQAEDLAVYYCMQSFNLRTFGQGTKVEIKRTVAAPSVFIFPPSDEQLKSGTASVVCLLNNFYPREAKVQWKVDNALQSGNSQESVTEQDSKDSTYSLSSTLTLSKADYEKHKVYACEVTHQGLSSPVTKSFNRGEC
notes: IgG1/kappa; also called hz515H7VL2; hz515H7-1
